Values of other authors in patent US9408889B2, “Fusion peptide designed to reduce plaque bacteria and yeast in the oral cavity” (RUTGERS, THE STATE UNIVERSITY OF NEW JERSEY, priority 2011, dated 2016).

Test system: Streptococcus mutans
Conditions: full length Lf variant expressed in an insect vector

B1: arginine variant: full length lactoferrin (Lf) variant with arginine at position 29, the more common variant (protein, UniProt P02788 1-710, looked up)
chain: MKLVFLVLLFLGALGLCLAGRRRSVQWCAVSQPEATKCFQWQRNMRKVRGPPVSCIKRDSPIQCIQAIAENRADAVTLDGGFIYEAGLAPYKLRPVAAEVYGTERQPRTHYYAVAVVKKGGSFQLNELQGLKSCHTGLRRTAGWNVPIGTLRPFLNWTGPPEPIEAAVARFFSASCVPGADKGQFPNLCRLCAGTGENKCAFSSQEPYFSYSGAFKCLRDGAGDVAFIRESTVFEDLSDEAERDEYELLCPDNTRKPVDKFKDCHLARVPSHAVVARSVNGKEDAIWNLLRQAQEKFGKDKSPKFQLFGSPSGQKDLLFKDSAIGFSRVPPRIDSGLYLGSGYFTAIQNLRKSEEEVAARRARVVWCAVGEQELRKCNQWSGLSEGSVTCSSASTTEDCIALVLKGEADAMSLDGGYVYTAGKCGLVPVLAENYKSQQSSDPDPNCVDRPVEGYLAVAVVRRSDTSLTWNSVKGKKSCHTAVDRTAGWNIPMGLLFNQTGSCKFDEYFSQSCAPGSDPRSNLCALCIGDEQGENKCVPNSNERYYGYTGAFRCLAENAGDVAFVKDVTVLQNTDGNNNEAWAKDLKLADFALLCLDGKRKPVTEARSCHLAMAPNHAVVSRMDKVERLKQVLLHQQAKFGRNGSDCPDKFCLFQSETKNLLFNDNTECLARLHGKTTYEKYLGPQYVAGITNLKKCSTSPLLEACEFLRK
modifications: full-length
notes: full length lactoferrin (Lf) variant with arginine at position 29, the more common variant
  effect on survival of S. mutans: little to no effect
